From the nanobody polyreactivity screen of Harvey et al. (2022)

Test: yeast display, Sf9 membrane polyspecificity reagent, FACS + sequencing; frameworks hold sequencing errors
Method in brief: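 After 36–48 hours of galactose induction, yeast (Saccharomyces cerevisiae BJ5465) displaying a synthetic nanobody library were stained at 4 °C for 1 hour with 10% biotinylated, detergent-solubilized Sf9 membrane reagent. Streptavidin microbeads enriched the stained cells before FACS sorting into low and high (top ~1%) gates on anti-HA and streptavidin fluorescence. Each clone's polyreactivity label reflects its gate of origin.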

Sequence	polyreactivity (PSR sort gate)
QVQLVESGGGLVQARGSLRLICAASGRTFSYNTMGWYRQAPGKERDLVASITRSGGSTYYSDSVKGRFTISRDNAKNTVYLQMNSLKPEDTAVYYCAADSYPGSTYYDSLDYWGQGTQVTVSS	low polyreactivity
QVQLVESGGGLVQARGSLRLRFAASGSTFPYYAMGWDRQAPGKERELVATITKRGGRKYYADSVKGRFTISRDNAKNTVYFLMTSLKPEDTAVYYCAARFRFAVTYDYWGQGTQVTVSS	high polyreactivity
QVQLVESGGGLVQARGSLRLSCAASGFTFAFYAMGWYRQAPGKEMELVAAITGSGGSTYDADSVKGRFTISRDNAKNTVYLQLNSLKPEDTAVYYCFTRGGYYLYYSYYYWGQGTQVTVSS	high polyreactivity
QVQLVESGGGLVQARGSLRLSCAASGFTFRSYTMGWYRQAHGKERELVAAITSRGTSTYYADSVKGRFTISLDNAKNTVYLQMNSLKPEDTAVYYCAAPIYNGYASWQVYYWGQGTQVTVSS	high polyreactivity
QVQLVESGGGLVQARGSLRLSCAASGIIRSNAMGWYRQAPGKERELVAVISSSGGRTYYADSVKGRFTISRDNAKNTVYLQMTSLKPEDTAVFYCPAQVQVGAFSYYYWGQGTQVTVSS	high polyreactivity
QVQLVESGGGLVQARGSLRLSCAASGLTVGYNAMGWYRQARVKEWELVGAISSNGGRTYYADSVKGRFTISRDNAKNTVYLQMNSLKPEDTAVYYCNARYTGSSLYYWGQGTQVTVSS	high polyreactivity
QVQLVESGGGLVQARGSLRLSCAASGNTFVTNAIGWYRQAPGKVRELVAAINSSGGSTYYADSVKGRFTISRDNAKNTVYLQMNSLKPEDTAVYYCAADPLGITSGYGYWGQGTQVNVSS	low polyreactivity
QVQLVESGGGLVQARGSLRLSCAASGRIFLINGMGWYRQAPGKERELVAVITQSGGTYYADSVKGRFTISRDNAKNTVYLQMNSLKPEDTAVYYFAASSYGASRGYWGQGTQVTVSS	high polyreactivity
QVQLVESGGGLVQARGSLRLSCAASGRIFVRKAMGWYRQAPGKERELVASISTSSGSTYYADSVKGRFTISRDNAKNTVYLQMNSLTPEVTAVYYCNAGYHFVHWPHVKHKKFDYWGQGTQVTVSS	low polyreactivity
QVQLVESGGGLVQARGSLRLSCAASGRTFDLYAMGWYRQSPGKERELVAAITKGGGSTYYADSVKGRFTISRDNAKNTVYLQMNSLKPEDTAVYYCAARKYKRIYRISSGIGYYWGQGTQVTVSS	high polyreactivity
QVQLVESGGGLVQARGSLRLSCAASGRTFFENAMGWYRQAPGKERELVATITTTGGSTYYADSVKGRFTISRDNAKNTVYLQMNSLKPEYTAVYYCATRGWYLGSRGYRNRYGYWGQGTQVTVSS	high polyreactivity
QVQLVESGGGLVQARGSLRLSCAASGRTFGNYAMGWYRQSPGKERELVASINTGGSTSYADSVKGRFTISRDNAKNTVYFLMNSLKPEDTAVYYCARSFFWYRLHVYWGQGTQVTVSS	low polyreactivity
QVQLVESGGGLVQARGSLRLSCAASGRTFRSYAMGWYRQAPGKERELVAVITRSTGNTYYADSVKGRFTISRDNAMNTVYLQMNSLKPEDTAVYYCARQYRRYDYWGQGTQVTVSS	high polyreactivity
QVQLVESGGGLVQARGSLRLSCAASGSIFDPNAMGWSRQAPGKVRELGAAMTSGGGSTYYADSVKGRFTISRDNAKNTVYLQMNSLKPEDTAVYYCNNVFVLPYNFVAWFDYWGQGTQVTVSW	low polyreactivity
QVQLVESGGGLVQARGSLRLSCAASGSIFGKNVMGWYRQAPGKERELVAAISRSGGRTYYADSVKGRFTISRDNAKNTVYLQMNSLKPEDTAVYYCAADGQPIGQQTYDYWGQGTQVTVSS	high polyreactivity
QVQLVESGGGLVQARGSLRLSCAASGSIFNRNAMGWYRQAPGKERELVAAISRRGGSTYYADSVKGRFTISRDNEKNSVYLQMNSLKPEDTAVYYCAAATRKTEYDYWGQGTEVTVSS	low polyreactivity
QVQLVESGGGLVQARGSLRLSCAASGSIFSIYAMGWYRPAPGTERELVASITRSSGRTYYADSVKGRFTISRDNAKNTVYLQMISLKPEDTAVYYCAKDYIPLALDADDYWGQGTQVTVSS	low polyreactivity
QVQLVESGGGLVQARGSLRLSCAASGSISDYYAMGWYRQAPGKERELVAAISWDGGSTYYADSVKGRFTISRDNAKNTVYLQLNSLKPEDTAVYYCNAGSGASVGNNILYDYWGQGTQVTVSS	low polyreactivity
QVQLVESGGGLVQARGSLRLSCAASGSTFRYYAMGLYRQAPGKERELVAAITSSGTSTYYADSVKGRFTISRDNAKNTVYLQMISLKPEDTAVYYCAAPPVYKWVSSRYDYWGQVTQVTVSS	low polyreactivity
QVQLVESGGGLVQARGSLRLSCAASGSTFYYYAMGWYRQAPGKEREFVAAISWTGGTTYYADSVKGRFTISRDIAKNTVYLQMNSLKPEDTAVYYCNADPWWDSDWGYDYWGQGTQVTVSS	low polyreactivity
QVQLVESGGGLVQARGSLRLSCAASGSTLTRNALGWYRQAPGKERELVAAITQRGGSTYYADSVKGRFTISRDNGKNTVYFQMNSLKPEDTAVYYCAKVPSVKYRSIWVLPEYGWGQGTQVTVSS	high polyreactivity
QVQLVESGGGLVQARGSLRLSCAASGSTSTYYAMGWYRQAPGKERELVAAITSSVGSTHYADSVKGRFTISRDNAKNTVYLQMNSLKPEDTAVYYCAATFGYGRYGYWGQGTQVTVSS	low polyreactivity

Sequence	polyreactivity (PSR sort gate)
QVQLVESGGGLVQARGSLRLSCAASGYIINQYTKGWYRQAPGKERELVADISSGGSTKYADSVKGRFTISRDNGKNTVSLQMNSLKPEDTAVYYCNGEYDSGSPTAYDWEYDYWVQGTQVTVSS	high polyreactivity
QVQLVESGGGLVQARGSLRLSCAASVGILNWYALGWYRLAPVKEWELVAAISWSGGSTYYADSVKGRFTISRDNAKNTVYLHFNSLKPEVTAVYYCAAHSRGRFSRTYGYWGDGTQVTVSS	high polyreactivity
QVQLVESGGGLVQARGSLRLSCAATGSTFDKYAMGRYRQAPGKERELVAAISSSGTRTYYADSVKGRFTISRDNAKITVYLQMNSLKPEDTAVYYCDTGGSNKYYYWGQGTQVTVSS	high polyreactivity
QVQLVESGGGLVQARGSLRLSSAATGLIILAYAMGWYRQAPGKERELVAAISTSGSTYYADSVKGRFTISRDNAKNTVYLQMNSLKPEDTAVYYCAAYYRWSVTYYDWGQGTQGTVSS	high polyreactivity
QVQLVESGGGLVQARGSLRLTCAASGRNFYLNAMGWYRQAPGKERELVAAITWSGGRTYYADSVKGRFTISRDNAKNTVYLQMYSLKPEDTAFYYCAAVPRPGPNTVLTPYVYWGQGTQVTVSS	high polyreactivity
QVQLVESGGGLVQARGSLRVSCAASGSTFGRYAMGWYRQAPGKDRELVAAITGSGGSTYYADSVKGRFTISRDNAKNTVYLHMNSLKPEDTAVYYCAAPVDYRRYEYEYWGQGTQVTVSS	low polyreactivity
QVQLVESGGGLVQAVGSHRLSCAASGFIFTSYAMGCYRQAPGKERELVAAITRSGGRTYYADSVKGRFTISRDNAKNTVYLQMNSLKPEDTAVYYCAAVTFYQSPARGYWGQGTQVTVSS	high polyreactivity
QVQLVESGGGLVQAVGSLRLSCAASASIFRNNAMGWYRQAPGKERELVASISSSGDNTNYADSVKGRFTISRDNAKNTVYLQMNSLKPEDTAVYYCAAANKGPDQADYHYDQWGQGTQVTVSS	low polyreactivity
QVQLVESGGGLVQAVGSLRLSCAASGGIFTLYVMGWYRQAPGKERELVAAISRTGGSTYYADSVKGRFTISRDNAKNTVYLQMNSLKPEDTAVYYCAALYRGGTRYGGYDYWGQGTQVTVSS	low polyreactivity
QVQLVESGGGLVQAVGSLRLSCAASGLIFERYAMGSYIQAPGKEREFVAAISKRGGSTYYADSVKGRFTISRDNAKNTVYLQMNSLKPEDTAVYDCAVQPNYYGMGYCGQGTQVTVSS	high polyreactivity
QVQLVESGGGLVQAVGSLRLSCAASGRTFDFYAMGWYREAPGKEREFVAAISSRGGSTYYADTVKGRFTISRDNAKNTVYLQMNSLKPEDTAVYYCAKDLGYRGRYNYWGQGTQVTVSS	low polyreactivity
QVQLVESGGGLVQAVGSLRLSCAASGSIFPVYAMGWYRQAPGKERELVADITYTTGSTYYADSVKRRFTISRDNAKNTFYLQMNSLKPEDTAVYYCAKDFGFQSDSWGQGTQVTVSS	low polyreactivity
QVQLVESGGGLVQAVGSLRLSCAASGSTFAYYAMGWYRQAPGKEREFVAAISTRGGSTYYADSVKGRFTISRDNAKNTVYLQLISLKQEDTAFYYCAAGYFIYSWRIRFDHWGQGTQVTVSS	high polyreactivity
QVQLVESGGGLVQAVGSLRLSCADSGRLLSYYDMGWYRQAPGKVRELVARLGGTYYADSVKGRFTISRYIAKNTVYLQMNSLKPEDTAVYYCAAEYGYDFLRSYHEYGYWGQGTQVTVSS	low polyreactivity
QVQLVESGGGLVQAVGSLRLSCAPSGSTFPYYAMGWYRQAPGKERELVASIRKRGGGTYYADSVKGRFTISRDNAKNTVYLQMNSLKPEDTAVYYCAVRVYQFRYTGYDYWGQGTQVTVSS	high polyreactivity
QVQLVESGGGLVQAVGSLSLSCAASGIIFTWYDMGWYRPAPGKERELVAAISYIGGGSTYYADSVKGRFTISRDNAKNTVYLQMNSLKPEDTAVYYCATDFYYAKYGYWGQGTQVTVSS	low polyreactivity
QVQLVESGGGLVQEGGSLCLSCAASGINFYYYTMGWYRQATGKERELVDAISGDDTHYADSVKGRFTISGDNAKKTVYLLMNSLKADHTAVYYCAAGYIYWDTVQSVYEYGYCGQGTQVTVSS	low polyreactivity
QVQLVESGGGLVQEGGSLLLSCAASGRTFNQYAMGWYRQAPGKERELVAGITISGGSTYYADSVKGRFTISRENAKNTVYLQMNSLIPEDTAVYYCIAVFDYYRQSKWTMDYWGQGTQVTVSS	low polyreactivity
QVQLVESGGGLVQEGGSLPLSCAASGSIIWVYAMGWYRQPPGKERELFAAITSGVSTYYADSVKGRFTISRDNAKITVYFQFNRLKPEDSAVYDCAVVGGFRWIRMEYWGQGTQVSVSS	low polyreactivity
QVQLVESGGGLVQEGGSLRISCAASGRIFDSNAMVWYRQAPGKERELVAAISNGGTTNYADSVKGRFTISRDNAKNTVYLQMNSLKPADTAVYYCAARGRVVWYNGGSYRFYYWGQGTQVTVSS	high polyreactivity
QVQLVESGGGLVQEGGSLRISCAASGSIFQSNAMGRYRQAPGKERERVAAISSSGVRTYYADSVKGRFTISRDNAKNTVYLQMNSLKREDTAVYYCATGWYYAGGPTYEYYYWGQGTQVTVSS	low polyreactivity
